Test results taken from paper PMC12368178.
“And” between values parts separate entries of the source, which are not always exact repeats. Equal entries are not always repeated.

Molecular target: 16055 DG4 NFL trimer (HIV-1 (Indian subtype C 16055 strain))
Assay: SEC + native gel or EMSA

## 16055 DG4 NFL trimer
  stoichiometry N: 3 and 6
